Changes are numbered by the printed parent chain. Names and notes keep the numbering of the source.

For assay [1], the target named is purified recombinant human GITR protein (Example 1) (human) (UniProt Q9Y5U5). Put plainly: SPR (BIAcore), huGITR immobilized on CM5, analyte 12.5-200 nM.
Assay [2] deals with T1, V1M cynomolgus GITR on 1624-5 cells (cynomolgus monkey, UniProt Q9Y5U5 26-241 (human entry)).
T1 chain: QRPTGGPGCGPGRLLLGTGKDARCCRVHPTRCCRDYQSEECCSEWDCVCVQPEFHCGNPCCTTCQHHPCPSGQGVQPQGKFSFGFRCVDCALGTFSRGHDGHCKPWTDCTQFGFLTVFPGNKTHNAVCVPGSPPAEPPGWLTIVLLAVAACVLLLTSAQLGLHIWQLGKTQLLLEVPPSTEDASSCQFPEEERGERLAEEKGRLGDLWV
Put plainly: flow cytometry on 1624-5 cells.

The target of assay [3] is T2, V1M/Q62P/S63G cynomolgus GITR on 1624-5 cells (cynomolgus monkey, UniProt Q9Y5U5 26-241 (human entry)).
T2 construct: also called mutant cynomolgus GITR V1M/Q62P/S63G
T2 chain: T1 chain with Q37P, S38G
Put plainly: flow cytometry on 1624-5 cells, 2 µg/ml. (In general: Flow cytometry measures light scatter and fluorescence of single cells or particles in a stream.)

In assay [4] the target is T3, human GITR G63A mutant on 1624-5 cells (human, UniProt Q9Y5U5 26-241).
T3 chain: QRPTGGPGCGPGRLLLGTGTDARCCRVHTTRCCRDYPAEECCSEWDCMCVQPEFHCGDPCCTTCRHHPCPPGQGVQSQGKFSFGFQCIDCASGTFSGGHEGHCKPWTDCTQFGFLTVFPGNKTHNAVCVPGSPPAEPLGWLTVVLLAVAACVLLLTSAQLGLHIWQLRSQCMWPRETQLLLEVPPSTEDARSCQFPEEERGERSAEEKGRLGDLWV
Put plainly: flow cytometry on 1624-5 cells, 2 µg/ml, MFI ratio to polyclonal antibody. The protocol:
(§1) An average MFI ratio (“AMFI ratio”) was calculated based on the individual MFI ratios for all the mutants. FIG. 34A is a table summarizing the binding of Hum231#2, three germline variants (pab1967, pab1975 and pab1979) and the reference antibody m6C8 to1624-5 cells expressing human GITR alanine mutants. An individual MFI ratio that is above 60% of the AMFI ratio is considered to indicate similar binding, after normalization, of that of the polyclonal antibody and is represented by “+” in FIG. 34A. An individual MFI ratio that is between 30% and 60% of the AMFI ratio is represented by “+/−” in FIG. 34A. An individual MFI ratio that is below 30% of the AMFI ratio is represented by “−” in FIG. 34A.
(§2) All the mean fluorescence intensity (MFI) values were calculated as the mean of two measurements. […] The percentage of binding of an antibody to the GITR alanine mutants relative to the wild type GITR was calculated by dividing a particular MFI ratio for the GITR alanine mutants by the corresponding MFI ratio for the wild type (e.g., dividing MFI ratio_{Hum231#2, D60A} by MFI ratio_{Hum231#2, WT}). The percentage of reduction in binding was determined by calculating, e.g., 100%*(1−(MFI ratio_{Hum231#2, D60A}/MFI ratio_{Hum231#2, WT})).

The target in assay [5] is T4, human GITR D60A mutant on 1624-5 cells (human, UniProt Q9Y5U5 26-241).
T4 chain: T3 chain with D35A, A38G
The description is as above. Here is the method:
as §1, §2

In assay [6] the target is T5, GITR antigen (R&D systems, di-sulfide-linked homodimer; 689-GR) (human, UniProt Q9Y5U5 26-161).
T5 construct: Bought
T5 sequence: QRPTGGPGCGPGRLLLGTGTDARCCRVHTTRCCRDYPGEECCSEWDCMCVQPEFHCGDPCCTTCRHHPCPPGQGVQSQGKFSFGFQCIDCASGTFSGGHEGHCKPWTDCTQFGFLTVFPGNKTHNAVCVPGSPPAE
Put plainly: SPR (BIAcore T100/T200), antibody captured via anti-human Fab, GITR antigen 40/10/2.5 nM, 1:1 model. The protocol:
All interactions were analyzed at 25° C. using 1× DPBS (PAA, H15-002) plus P20 (0.05%, Pierce, 28320) as running buffer. Anti-GITR antibodies (8 μg/ml in running buffer) were captured to the chip surface of a CM5 sensor chip (GE Healthcare, Series S CM5, BR-1005-30) via an immobilized anti-human Fab antibody (GE Healthcare, Fab Capture Kit, 28958325). To detect unspecific interactions of the GITR antigen, antibody capture was only performed in flow cell 2, whereas in flow cell 1 only the capturing antibody was immobilized. In addition, an unrelated antibody (anti-IL-1β; SK48E26; International Publication No. WO 95/001997) was used to assess specificity of GITR binding. After capture of the anti-GITR antibodies GITR antigen (R&D systems, di-sulfide-linked homodimer; 689-GR) was run through both flow cells in different amounts (40 nM, 10 nM and 2.5 nM) for each antibody. Also a blank curve (running buffer only) was included in each run. Association was run for 90 s and dissociation for 600 s with a flow rate of 10 μl/min. After each run a regeneration step was performed with 10 mM Glycine pH2.0 (GE Healthcare, BR-1003-55) for 60 s with 30 μl/min. Binding curves were evaluated using BIAcore® T200 evaluation software version 2.0.1 applying a Langmuir 1:1 model with global fit of Rmax.
A general note: Surface plasmon resonance follows binding to a sensor surface in real time, without labels.

A word on the Kd: it is the constant that tells how readily two partners part at equilibrium. “human GITR-L (Example 1, BIAcore analyte) (from UniProt Q9UNG2 49-177) (ligand)”: in assay [1], the Ka was found to be 1.81e+08 M⁻¹ and the Kd was 5.54 nM.

B1: Hum231#2 (antibody, human IgG1, V domains shown)
VH: QVQLVQSGAEVKKPGASVKVSCKGSGYTFTDYAMYWVRQAPGQGLEWIGVIRTYSGDVTYNQKFKDRATMTVDKSISTAYMELSRLRSDDTAVYYCAKSGTVRGFAYWGQGTLVTVSS
VL: DIVMTQSPDSLAVSLGERATINCKSSQSLLNSGNQKNYLTWYQQKPGQPPKLLIYWASTRESGVPDRFSGSGSGTDFTLTISSLQAEDVAVYHCQNDYSYPYTFGQGTKLEIKR
notes: Human IgG1 with T109S (Kabat) in the light chain constant domain; also called humanized variant Hum231#2 (IGHV1-2*02 and IGK4-1*01)
Broadly, the koff is a measure of how fast the partners let go of each other. A low value points to slow dissociation. By kon is commonly meant the rate constant with which the complex forms. Lower therefore signals slower complex formation. B1: the binding result in assay [2] is reported as “no binding (tested: 2 µg/ml)”. Also, the binding result in assay [3] is on record as “binds”. Moreover, the “percent reduction in binding relative to wild type human GITR” value in assay [4] was found to be 59%. Moreover, the “percent reduction in binding relative to wild type human GITR” value in assay [5] worked out at 88%. In assay [6], this molecule came in with a Kd of 0.629 nM, an off-rate constant (koff) of 0.00178 s⁻¹ and an association rate constant (kon) of 2.83e+06 M⁻¹ s⁻¹.

B2: m6C8 (antibody, human IgG1, V domains shown)
VH: QVTLKESGPGILKPSQTLSLTCSFSGFSLSTSGMGVGWIRQPSGKGLEWLAHIWWDDDKYYNPSLKSQLTISKDTSRNQVFLKITSVDTADAATYYCARTRRYFPFAYWGQGTLVTVSS
VL: DIVMTQSQKFMSTSVGDRVSVTCKASQNVGTNVAWYQQKPGQSPKALIYSASYRYSGVPDRFTGSGSGTDFTLTINNVHSEDLAEYFCQQYNTDPLTFGAGTKLEIKR
notes: also called murine antibody 6C8
Regarding B2, the “percent increase in binding relative to wild type human GITR” value in assay [4] is 62%. For the same molecule, in assay [5], the “percent reduction in binding relative to wild type human GITR” value stood at 10%.

B3: chimeric parental 231-32-15 antibody (antibody, human IgG1, V domains shown)
VH: QVQLLQSGTELVRPGVSVKISCKGSGYTFTDYAMYWVKQSHAKSLEWIGVIRTYSGDVTYNQKFKDKATMTVDKSSSIAYMELARLSSEDSAIYYCAKSGTVRGFAYWGQGTLVTVSS
VL: DIVMTQSPSSLTVTAGEKVIMSCKSSQSLLNSGNQKNYLTWYQQKPGQPPKLLIYWASTRESGVPDRFTGSGSGTDFTLTISSVQAEDLAVYHCQNDYSYPYTFGGGTKLEIK
notes: Murine variable regions on human IgG1 (CH1-2-3) and human kappa constant regions; T109S (Kabat) in the light chain constant domain
As for B3, the binding result in assay [2] is on record as “no binding (tested: 2 µg/ml)”. Besides, the binding result in assay [3] was “binds”. The “percent reduction in binding relative to wild type human GITR” value in assay [4] was found to be 37%. Besides, the “percent reduction in binding relative to wild type human GITR” value in assay [5] came out at 82%. In assay [6], this molecule gave a Kd of 2.02 nM, a koff of 0.000712 s⁻¹ and a kon of 352000 M⁻¹ s⁻¹.

The values are drawn from patent US20210070872A1 (AGENUS, published 2021).
